Values of other authors in article PMC12703448.

Target: PDE6D (Homo sapiens) (UniProt O43924)
Sequence (O43924 whole entry): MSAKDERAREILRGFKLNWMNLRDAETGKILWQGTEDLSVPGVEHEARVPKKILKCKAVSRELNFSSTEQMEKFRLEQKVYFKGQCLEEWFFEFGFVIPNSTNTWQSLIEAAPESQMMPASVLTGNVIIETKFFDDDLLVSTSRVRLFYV

INPP5E, sequence (Q9NRR6 1-641): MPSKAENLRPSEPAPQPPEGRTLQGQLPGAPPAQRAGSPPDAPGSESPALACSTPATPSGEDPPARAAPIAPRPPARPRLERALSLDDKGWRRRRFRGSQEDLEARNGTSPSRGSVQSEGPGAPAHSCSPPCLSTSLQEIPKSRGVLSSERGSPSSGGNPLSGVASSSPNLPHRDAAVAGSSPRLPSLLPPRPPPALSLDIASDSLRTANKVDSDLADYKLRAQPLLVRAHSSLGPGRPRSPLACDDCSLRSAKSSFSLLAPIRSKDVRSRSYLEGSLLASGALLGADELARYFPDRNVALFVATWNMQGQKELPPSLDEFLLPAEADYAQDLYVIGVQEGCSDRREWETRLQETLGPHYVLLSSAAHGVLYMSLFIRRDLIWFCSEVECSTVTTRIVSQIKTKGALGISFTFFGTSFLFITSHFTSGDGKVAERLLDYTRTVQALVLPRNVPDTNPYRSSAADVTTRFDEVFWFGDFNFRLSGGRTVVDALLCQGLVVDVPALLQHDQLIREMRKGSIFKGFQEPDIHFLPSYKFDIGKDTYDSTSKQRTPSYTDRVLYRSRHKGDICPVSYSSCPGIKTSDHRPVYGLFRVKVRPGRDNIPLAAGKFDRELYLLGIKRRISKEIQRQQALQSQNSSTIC

## INPP5E (from UniProt Q9NRR6)
  Kd: 4 nM
